Data published in patent US20240190962A1 (IMMUNOWAKE, published 2024).

Assays:
human PD-1 [1] = target: T1, human PD-1 (human, UniProt Q15116 25-167, limits assumed); assay: PD-L1-Fc format, calibrated on PD-L1(wt)-Fc
T1 construct: also called hPD-1

mouse PD-1 [2] = target: T2, mouse PD-1 (mouse, UniProt Q02242 25-167, limits assumed); assay: PD-L1-Fc format, calibrated on PD-L1(wt)-Fc
T2 construct: also called mPD-1
T2 sequence (looked up): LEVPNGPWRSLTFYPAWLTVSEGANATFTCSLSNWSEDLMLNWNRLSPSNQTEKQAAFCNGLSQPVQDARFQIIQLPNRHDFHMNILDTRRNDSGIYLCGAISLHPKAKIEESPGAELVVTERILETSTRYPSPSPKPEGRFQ

[3] = target: T3, human PD-1 on HEK-PD-1-IL-2 cells (human, UniProt Q15116 25-288); assay: FACS on HEK-PD-1-IL-2 cells
T3 construct: whole, on cells
T3 sequence (Q15116 25-288): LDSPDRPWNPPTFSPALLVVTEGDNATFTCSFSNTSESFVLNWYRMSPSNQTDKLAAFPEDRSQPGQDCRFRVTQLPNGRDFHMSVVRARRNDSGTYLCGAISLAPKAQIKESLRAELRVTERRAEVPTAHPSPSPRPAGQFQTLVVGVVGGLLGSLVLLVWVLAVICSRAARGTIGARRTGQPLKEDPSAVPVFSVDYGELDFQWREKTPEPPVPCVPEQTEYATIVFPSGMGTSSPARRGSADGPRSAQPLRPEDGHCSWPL

[4] = target: T4, human IL-2 receptor (IL-2Rα, IL-2Rβ, IL-2Rγ) (human, UniProt P01589 22-272; P14784 27-551; P31785 23-369); assay: cell-based or functional assay
T4 sequence (looked up) 1: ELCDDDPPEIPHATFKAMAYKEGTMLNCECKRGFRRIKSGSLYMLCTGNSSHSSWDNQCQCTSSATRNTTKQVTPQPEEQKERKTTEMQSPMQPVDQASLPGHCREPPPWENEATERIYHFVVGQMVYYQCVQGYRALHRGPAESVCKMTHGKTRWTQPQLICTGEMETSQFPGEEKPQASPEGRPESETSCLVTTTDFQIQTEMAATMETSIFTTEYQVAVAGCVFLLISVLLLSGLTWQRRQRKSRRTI
T4 sequence (looked up) 2: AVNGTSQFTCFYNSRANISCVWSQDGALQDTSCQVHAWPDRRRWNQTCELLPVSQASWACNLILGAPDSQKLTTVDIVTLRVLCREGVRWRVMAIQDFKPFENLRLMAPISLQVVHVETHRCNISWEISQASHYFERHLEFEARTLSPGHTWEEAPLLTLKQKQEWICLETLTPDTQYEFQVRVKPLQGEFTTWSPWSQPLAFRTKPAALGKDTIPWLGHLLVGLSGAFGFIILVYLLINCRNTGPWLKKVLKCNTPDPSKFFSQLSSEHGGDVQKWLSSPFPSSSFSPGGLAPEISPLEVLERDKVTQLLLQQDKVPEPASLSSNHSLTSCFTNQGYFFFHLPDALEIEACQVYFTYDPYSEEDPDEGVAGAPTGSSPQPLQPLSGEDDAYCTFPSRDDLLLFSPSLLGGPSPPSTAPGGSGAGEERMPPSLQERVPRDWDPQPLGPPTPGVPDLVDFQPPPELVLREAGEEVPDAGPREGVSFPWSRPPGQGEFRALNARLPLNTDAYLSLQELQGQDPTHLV
T4 sequence (looked up) 3: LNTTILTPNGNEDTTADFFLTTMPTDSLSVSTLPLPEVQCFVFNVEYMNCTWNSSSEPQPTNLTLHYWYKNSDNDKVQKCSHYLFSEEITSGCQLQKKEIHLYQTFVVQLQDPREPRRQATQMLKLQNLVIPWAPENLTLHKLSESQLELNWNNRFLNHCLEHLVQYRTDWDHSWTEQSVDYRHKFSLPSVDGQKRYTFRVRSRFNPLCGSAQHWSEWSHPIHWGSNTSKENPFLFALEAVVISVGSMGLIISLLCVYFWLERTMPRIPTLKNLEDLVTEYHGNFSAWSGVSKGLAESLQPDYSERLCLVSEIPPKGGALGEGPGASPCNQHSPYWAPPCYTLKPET

human PD-1 [5] = target: T1, human PD-1; assay: PD-L2-Fc format, calibrated on PD-L2(wt)-Fc
mouse PD-1 [6] = target: T2, mouse PD-1; assay: PD-L2-Fc format, calibrated on PD-L2(wt)-Fc

T1 sequence (Q15116 25-167 limits assumed): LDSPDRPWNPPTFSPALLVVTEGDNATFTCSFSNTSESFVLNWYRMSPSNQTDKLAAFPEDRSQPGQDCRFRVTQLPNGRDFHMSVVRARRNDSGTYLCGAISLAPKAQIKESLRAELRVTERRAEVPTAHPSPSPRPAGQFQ

B1: PD-L1(mut7)-Fc (Fc fusion)
chain 1: FTVTVPKDLYVVEYGSNMTIECKFPVEKQLDLAALQVYWMMEDKNIIQFVHGEEDLKVQHSSYRQRARLLKDQLSLGNAALQITDVKLQDAGVYTCLIAYGGADYKRITVKVNAPYNKINQRILVVDPVTSEHELTCQAEGYPKAEVIWTSSDHQVLSGKTTTTNSKREEKLFNVTSTLRINTTTNEIFYCTFRRLDPEENHTAELVIPELPLAHPPNERGGGGSGGGDKTHTCPPCPAPEDEGGPSVFLFPPKPKDTLMISRTPEVTCVVVDVSHEDPEVKFNWYVDGVEVHNAKTKPREEQYNSTYRVVSVLTVLHQDWLNGKEYKCKVSNKALPAPIEKTISKAKGQPREPQVYVYPPSREEMTKNQVSLTCLVKGFYPSDIAVEWESNGQPENNYKTTPPVLDEDGSFALVSKLTVDKSRWQQGNVFSCSVMHEALHNHYTQKSLSLSPGK
chain 2: FTVTVPKDLYVVEYGSNMTIECKFPVEKQLDLAALQVYWMMEDKNIIQFVHGEEDLKVQHSSYRQRARLLKDQLSLGNAALQITDVKLQDAGVYTCLIAYGGADYKRITVKVNAPYNKINQRILVVDPVTSEHELTCQAEGYPKAEVIWTSSDHQVLSGKTTTTNSKREEKLFNVTSTLRINTTTNEIFYCTFRRLDPEENHTAELVIPELPLAHPPNERGGGGSGGGDKTHTCPPCPAPEKKGGPSVFLFPPKPKDTLMISRTPEVTCVVVDVSHEDPEVKFNWYVDGVEVHNAKTKPREEQYNSTYRVVSVLTVLHQDWLNGKEYKCKVSNKALPAPIEKTISKAKGQPREPQVYVLPPSREEMTKNQVSLLCLVKGFYPSDIAVEWESNGQPENRYMTWPPVLDSDGSFFLYSKLTVDKSRWQQGNVFSCSVMHEALHNHYTQKSLSLSPGK
notes: also called PD-L1(I54Q/E58M/R113T/M115L/S117A)
Human PD-1 [1]
  Kd: 98 nM
Mouse PD-1 [2]
  Kd: 110 nM

B2: ligand-IL-2 mutant-PD-L2-Fc (Fc fusion)
chain 1: LFTVTVPKELYIIEHGSNVTLECNFDTGSHVNLGAITASLQKVENDTSPHRERATLLEEQLPLGKASFHIPQVQVRDEGQYQCIIIYGVAWDYKYLTLKVKASYRKINTHILKVPETDEVELTCQATGYPLAEVSWPNVSVPANTSHSRTPEGLYQVTSVLRLKPPPGRNFSCVFWNTHVRELTLASIDLQSQMEPRTHPTGGGGSAPTSSSTKKTQLQLEHLLLDLQMILNGINNYKNPKLTDMLTFEFYMPKKATELKHLQCLERELKPLEEVLNLAQSKNFHLRPRDLISNINVIVLELKGSETTFMCEYADETATIVEFLNRWITFCQSIISTLTDKTHTCPPCPAPEDEGGPSVFLFPPKPKDTLMISRTPEVTCVVVDVSHEDPEVKFNWYVDGVEVHNAKTKPREEQYNSTYRVVSVLTVLHQDWLNGKEYKCKVSNKALPAPIEKTISKAKGQPREPQVYVYPPSREEMTKNQVSLTCLVKGFYPSDIAVEWESNGQPENNYKTTPPVLDEDGSFALVSKLTVDKSRWQQGNVFSCSVMHEALHNHYTQKSLSLSPGK
chain 2: LFTVTVPKELYIIEHGSNVTLECNFDTGSHVNLGAITASLQKVENDTSPHRERATLLEEQLPLGKASFHIPQVQVRDEGQYQCIIIYGVAWDYKYLTLKVKASYRKINTHILKVPETDEVELTCQATGYPLAEVSWPNVSVPANTSHSRTPEGLYQVTSVLRLKPPPGRNFSCVFWNTHVRELTLASIDLQSQMEPRTHPTGGGGSDKTHTCPPCPAPEKKGGPSVFLFPPKPKDTLMISRTPEVTCVVVDVSHEDPEVKFNWYVDGVEVHNAKTKPREEQYNSTYRVVSVLTVLHQDWLNGKEYKCKVSNKALPAPIEKTISKAKGQPREPQVYVLPPSREEMTKNQVSLLCLVKGFYPSDIAVEWESNGQPENRYMTWPPVLDSDGSFFLYSKLTVDKSRWQQGNVFSCSVMHEALHNHYTQKSLSLSPGK
notes: also called IL-2(R38D/K43E/E61R)/PD-L2-Fc immunocytokine; construct #11
[3]
  binding result: binds
[4]
  Percent IL-2 signal transduction (HEK-IL-2 reporter assay): 2.4%
  Percent IL-2 signal transduction (HEK-PD-1-IL-2 reporter assay): 43.5%

B3: PD-L2(mut2)-Fc (Fc fusion)
chain 1: LFTVTVPKELYIIEHGSNVTLECNFDTGSHVNLGAITAVLQKVENDTSPHRERATLLEEQLPLGKASFHIPQVQVRDEGQYQCIIIYGVAWDYKYLTLKVKASYRKINTHILKVPETDEVELTCQATGYPLAEVSWPNVSVPANTSHSRTPEGLYQVTSVLRLKPPPGRNFSCVFWNTHVRELTLASIDLQSQMEPRTHPTGGGGSGGGDKTHTCPPCPAPEDEGGPSVFLFPPKPKDTLMISRTPEVTCVVVDVSHEDPEVKFNWYVDGVEVHNAKTKPREEQYNSTYRVVSVLTVLHQDWLNGKEYKCKVSNKALPAPIEKTISKAKGQPREPQVYVYPPSREEMTKNQVSLTCLVKGFYPSDIAVEWESNGQPENNYKTTPPVLDEDGSFALVSKLTVDKSRWQQGNVFSCSVMHEALHNHYTQKSLSLSPGK
chain 2: LFTVTVPKELYIIEHGSNVTLECNFDTGSHVNLGAITAVLQKVENDTSPHRERATLLEEQLPLGKASFHIPQVQVRDEGQYQCIIIYGVAWDYKYLTLKVKASYRKINTHILKVPETDEVELTCQATGYPLAEVSWPNVSVPANTSHSRTPEGLYQVTSVLRLKPPPGRNFSCVFWNTHVRELTLASIDLQSQMEPRTHPTGGGGSGGGDKTHTCPPCPAPEKKGGPSVFLFPPKPKDTLMISRTPEVTCVVVDVSHEDPEVKFNWYVDGVEVHNAKTKPREEQYNSTYRVVSVLTVLHQDWLNGKEYKCKVSNKALPAPIEKTISKAKGQPREPQVYVLPPSREEMTKNQVSLLCLVKGFYPSDIAVEWESNGQPENRYMTWPPVLDSDGSFFLYSKLTVDKSRWQQGNVFSCSVMHEALHNHYTQKSLSLSPGK
notes: also called PD-L2(S58V)
Human PD-1 [5]
  Kd: 350 nM
Mouse PD-1 [6]
  Kd: 230 nM

B4: PD-L2(mut4)-Fc (Fc fusion)
chain 1: LFTVTVPKELYIIEHGSNVTLECNFDTGSHVNLGAIVAVLLKVENDTSPHRERATLLEEQLPLGKASFHIPQVQVRDEGQYQCIIIYGVAWDYKYLTLKVKASYRKINTHILKVPETDEVELTCQATGYPLAEVSWPNVSVPANTSHSRTPEGLYQVTSVLRLKPPPGRNFSCVFWNTHVRELTLASIDLQSQMEPRTHPTGGGGSGGGDKTHTCPPCPAPEDEGGPSVFLFPPKPKDTLMISRTPEVTCVVVDVSHEDPEVKFNWYVDGVEVHNAKTKPREEQYNSTYRVVSVLTVLHQDWLNGKEYKCKVSNKALPAPIEKTISKAKGQPREPQVYVYPPSREEMTKNQVSLTCLVKGFYPSDIAVEWESNGQPENNYKTTPPVLDEDGSFALVSKLTVDKSRWQQGNVFSCSVMHEALHNHYTQKSLSLSPGK
chain 2: LFTVTVPKELYIIEHGSNVTLECNFDTGSHVNLGAIVAVLLKVENDTSPHRERATLLEEQLPLGKASFHIPQVQVRDEGQYQCIIIYGVAWDYKYLTLKVKASYRKINTHILKVPETDEVELTCQATGYPLAEVSWPNVSVPANTSHSRTPEGLYQVTSVLRLKPPPGRNFSCVFWNTHVRELTLASIDLQSQMEPRTHPTGGGGSGGGDKTHTCPPCPAPEKKGGPSVFLFPPKPKDTLMISRTPEVTCVVVDVSHEDPEVKFNWYVDGVEVHNAKTKPREEQYNSTYRVVSVLTVLHQDWLNGKEYKCKVSNKALPAPIEKTISKAKGQPREPQVYVLPPSREEMTKNQVSLLCLVKGFYPSDIAVEWESNGQPENRYMTWPPVLDSDGSFFLYSKLTVDKSRWQQGNVFSCSVMHEALHNHYTQKSLSLSPGK
notes: also called PD-L2(T56V/S58V/Q60L)
Human PD-1 [5]
  Kd: 255 nM
Mouse PD-1 [6]
  Kd: 220 nM
